The values below come from PMC3794917.

The test system of this series is Rad51. Description: EM. Conditions: RPA pre-bound to ssDNA, no Rad52, 60 mM NaCl; all filaments complete; Rad52 EMSA: 10 mM Tris-HCl pH 8, 5 mM MgCl2, 100 mM NaCl, 37 C, 10 min, 0.27 uM XV2, 8% native PAGE; filament assays: SEB buffer, 60 mM NaCl (or titrated) …. In general terms: In EMSA bound probe runs differently from free probe, usually more slowly.

In turn, 400-nt ssDNA fragment gave a binding signal (% of Rad51 filaments formed) of 12.5.
